According to US10239925B2, “Peptides and combination of peptides for use in immunotherapy against ovarian cancer and other cancers” (IMMATICS BIOTECHNOLOGIES GMBH, priority 2015, dated 2019):

Molecular target: HLA-A*02:01 (Homo sapiens, UniProt P04439, D140Y/D185E/D98H/E176V/E277Q/G131W/G231S/I119V/I121R/I166T/I218V/L300P/L318F/N151K/N90K/P208A/P217A/Q86G/Q94H/R138H/R169H/T345S)
Assay: MHC binding assay (UV-ligand exchange, anti-β2m ELISA, peptide exchange yield)
Details: binding to HLA-A*02:01
Description: Candidate peptides for T cell based therapies according to the present invention were further tested for their MHC binding capacity (affinity). The individual peptide-MHC complexes were produced by UV-ligand exchange, where a UV-sensitive peptide is cleaved upon UV-irradiation, and exchanged with the peptide of interest as analyzed. Only peptide candidates that can effectively bind and stabilize the peptide-receptive MHC molecules prevent dissociation of the MHC complexes. To determine the yield of the exchange reaction, an ELISA was performed based on the detection of the light chain (β2m) of stabilized MHC complexes. The assay was performed as generally described in Rodenko et al. (Rodenko et al., 2006).
96 well MAXISorp plates (NUNC) were coated over night with 2 ug/ml streptavidin in PBS at room temperature, washed 4× and blocked for 1h at 37° C. in 2% BSA containing blocking buffer. […] Peptide-MHC monomers of the UV-exchange reaction were diluted 100 fold in blocking buffer. Samples were incubated for 1 h at 37° C., washed four times, incubated with 2 ug/ml HRP conjugated anti-β2m for 1h at 37° C., washed again and detected with TMB solution that is stopped with […]. Absorption was measured at 450 nm. Candidate peptides that show a high exchange yield (preferably higher than 50%, most preferred higher than 75%) are generally preferred for a generation and production of antibodies or fragments thereof, and/or T cell receptors or fragments thereof, as they show sufficient avidity to the MHC molecules and prevent dissociation of the MHC complexes.

Row | Substance | Peptide exchange (MHC class I binding score, peptide exchange yield)
1 | 514 (ILVDWLVQV; listed as Homo sapiens) [compound 514] | “+++” (>50 = +++)
2 | 195 (GLFADLLPRL; listed as Homo sapiens) [compound 195] | “+++” (>50 = +++)
3 | 538 (LLLAHIIAL; listed as Homo sapiens) [compound 538] | “++” (>20% = ++)
4 | 437 (SMAPGLVIQAV; listed as Homo sapiens) [compound 437] | “+++” (>50 = +++)
5 | 286 (YLFPGIPEL; listed as Homo sapiens) [compound 286] | “+++” (>50 = +++)
6 | 520 (LAVHPSGVAL; listed as Homo sapiens) [compound 520] | “+” (>10% = +)
7 | 372 (TMLLNIPLV; listed as Homo sapiens) [compound 372] | “++” (>20% = ++)
8 | 487 (LLINSVFHV; listed as Homo sapiens) [compound 487] | “+++” (>50 = +++)
9 | 326 (FLPEALDFV; listed as Homo sapiens) [compound 326] | “+++” (>50 = +++)
10 | 521 (MLLTKLPTI; listed as Homo sapiens) [compound 521] | “+++” (>50 = +++)
11 | 512 (SLSEIVPCL; listed as Homo sapiens) [compound 512] | “+++” (>50 = +++)
12 | 13 (YLMDESLNL; listed as Homo sapiens) [compound 13] | “+++” (>50 = +++)
13 | 554 (LLMPSSEDLLL; listed as Homo sapiens) [compound 554] | “+++” (>50 = +++)
14 | 349 (SLTEYLQNV; listed as Homo sapiens) [compound 349] | “++++” (>75% = ++++)
15 | 609 (ALWKQLLEL; listed as Homo sapiens) [compound 609] | “+++” (>50 = +++)
16 | 472 (KLLEVSDDPQV; listed as Homo sapiens) [compound 472] | “+++” (>50 = +++)
17 | 69 (FQLDPSSGVLVTV; listed as Homo sapiens) [compound 69] | “+++” (>50 = +++)
18 | 205 (SLYPGTETMGL; listed as Homo sapiens) [compound 205] | “+++” (>50 = +++)
19 | 614 (LLLPDQPPYHL; listed as Homo sapiens) [compound 614] | “+++” (>50 = +++)
20 | 254 (TLLAFIMEL; listed as Homo sapiens) [compound 254] | “+++” (>50 = +++)
21 | 309 (GLFDGVPTTA; listed as Homo sapiens) [compound 309] | “+++” (>50 = +++)

Row | Substance | Peptide exchange (MHC class I binding score, peptide exchange yield)
22 | 303 (AILPQLFMV; listed as Homo sapiens) [compound 303] | “++++” (>75% = ++++)
23 | 82 (FLSSVTYNL; listed as Homo sapiens) [compound 82] | “+++” (>50 = +++)
24 | 87 (ALPEAPAPLLPHIT; listed as Homo sapiens) [compound 87] | “++” (>20% = ++)
25 | 350 (ALLDVTHSELTV; listed as Homo sapiens) [compound 350] | “+++” (>50 = +++)
26 | 502 (RLLAQVPGL; listed as Homo sapiens) [compound 502] | “+++” (>50 = +++)
27 | 299 (YLLETSGNL; listed as Homo sapiens) [compound 299] | “+++” (>50 = +++)
28 | 29 (KMLGIPISNILMV; listed as Homo sapiens) [compound 29] | “+++” (>50 = +++)
29 | 200 (LLFGSVQEV; listed as Homo sapiens) [compound 200] | “+++” (>50 = +++)
30 | 517 (LLMPIPEGLTL; listed as Homo sapiens) [compound 517] | “+++” (>50 = +++)
31 | 244 (SLFGGTEITI; listed as Homo sapiens) [compound 244] | “+++” (>50 = +++)
32 | 21 (VLDELDMEL; listed as Homo sapiens) [compound 21] | “++” (>20% = ++)
33 | 585 (ALWDLAADKQTL; listed as Homo sapiens) [compound 585] | “++++” (>75% = ++++)
34 | 516 (AVGPASILKEV; listed as Homo sapiens) [compound 516] | “++” (>20% = ++)
35 | 273 (NLFQSVREV; listed as Homo sapiens) [compound 273] | “++” (>20% = ++)
36 | 57 (TLAELQPPVQL; listed as Homo sapiens) [compound 57] | “+++” (>50 = +++)
37 | 558 (GLLENIPRV; listed as Homo sapiens) [compound 558] | “+++” (>50 = +++)
38 | 72 (SLLELDGINL; listed as Homo sapiens) [compound 72] | “+++” (>50 = +++)
39 | 595 (VLLSIYPRV; listed as Homo sapiens) [compound 595] | “+++” (>50 = +++)
40 | 572 (ALADLIEKELSV; listed as Homo sapiens) [compound 572] | “+++” (>50 = +++)
41 | 611 (YLLDDGTLVV; listed as Homo sapiens) [compound 611] | “++++” (>75% = ++++)
42 | 173 (LLDSASAGLYL; listed as Homo sapiens) [compound 173] | “+++” (>50 = +++)

Row | Substance | Peptide exchange (MHC class I binding score, peptide exchange yield)
43 | 265 (LLFGGTKTV; listed as Homo sapiens) [compound 265] | “++” (>20% = ++)
44 | 547 (TLDITPHTV; listed as Homo sapiens) [compound 547] | “+++” (>50 = +++)
45 | 602 (YLLEQIKLIEV; listed as Homo sapiens) [compound 602] | “++++” (>75% = ++++)
46 | 234 (ALMEDTGRQML; listed as Homo sapiens) [compound 234] | “++” (>20% = ++)
47 | 193 (QLLDADGFLNV; listed as Homo sapiens) [compound 193] | “+++” (>50 = +++)
48 | 109 (IILSILEQA; listed as Homo sapiens) [compound 109] | “++++” (>75% = ++++)
49 | 555 (YVLEGLKSV; listed as Homo sapiens) [compound 555] | “+++” (>50 = +++)
50 | 39 (SVAPNLPAV; listed as Homo sapiens) [compound 39] | “+++” (>50 = +++)
51 | 484 (SLIEKVTQL; listed as Homo sapiens) [compound 484] | “+++” (>50 = +++)
52 | 107 (FLQPVDDTQHL; listed as Homo sapiens) [compound 107] | “+++” (>50 = +++)
53 | 381 (FIDEAYVEV; listed as Homo sapiens) [compound 381] | “++” (>20% = ++)
54 | 176 (YLMEGSYNKVFL; listed as Homo sapiens) [compound 176] | “++” (>20% = ++)
55 | 305 (SIANFSEFYV; listed as Homo sapiens) [compound 305] | “++++” (>75% = ++++)
56 | 526 (RLAEVGQYEQV; listed as Homo sapiens) [compound 526] | “++” (>20% = ++)
57 | 227 (ALMNTLLYL; listed as Homo sapiens) [compound 227] | “++” (>20% = ++)
58 | 97 (SLINGSFLV; listed as Homo sapiens) [compound 97] | “+++” (>50 = +++)
59 | 607 (RLYSGISGLEL; listed as Homo sapiens) [compound 607] | “+++” (>50 = +++)
60 | 450 (FMIDASVHPTL; listed as Homo sapiens) [compound 450] | “+++” (>50 = +++)
61 | 613 (RLLPPGAVVAV; listed as Homo sapiens) [compound 613] | “+++” (>50 = +++)
